Data: publication doi:10.1101/340133
Numbering of substitutions follows the chain as printed. Each block holds one binder with its values, some of them ahead of it.

What was measured:
[1] = target: dynamic microtubules polymerized from αβ-tubulin on GMPCPP seeds (porcine) (UniProt P02554); experiment: TIRF microscopy of dynamic microtubules
[2] = target: dynamic microtubules polymerized from αβ-tubulin on GMPCPP seeds (porcine) (UniProt P02554); experiment: single molecule TIRF microscopy of dynamic microtubules

UniProt P02554, sequence (P02554 whole entry, looked up): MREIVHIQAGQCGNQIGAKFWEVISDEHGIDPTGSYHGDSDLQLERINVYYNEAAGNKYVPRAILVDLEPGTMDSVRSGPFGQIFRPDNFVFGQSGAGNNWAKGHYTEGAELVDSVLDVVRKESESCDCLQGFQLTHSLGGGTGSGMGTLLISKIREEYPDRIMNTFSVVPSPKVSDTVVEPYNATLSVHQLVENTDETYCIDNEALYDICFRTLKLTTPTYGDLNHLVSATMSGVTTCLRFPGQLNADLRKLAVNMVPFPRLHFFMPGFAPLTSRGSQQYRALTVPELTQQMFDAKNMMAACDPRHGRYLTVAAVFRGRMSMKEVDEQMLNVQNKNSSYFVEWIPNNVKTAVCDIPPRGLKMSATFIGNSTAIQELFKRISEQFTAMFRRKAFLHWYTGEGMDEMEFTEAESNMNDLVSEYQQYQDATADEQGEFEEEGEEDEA

- residence ratio at MT plus-ends (average) [1]: 89.4%
B1: wt-Alp14 (residues 1-690) with C-terminal mNeonGreen (domain or fragment)
chain: MSQDQEEDYSKLPLESRIVHKVWKVRLSAYEECSKSFSLSADGSDNCFELWNNQSELWKSVLTDSNVAAQEAGTAAFVAYCRFSDPSHLLKAREISVLSISEKCLTSPRAGTRENALEALMLLVEADSAAPVIESIIPSLSARSPKVIASNVAAIASLVEQFGAKVIPSKMIIPHISNLFGHADKNVRKEASRLTVNIYRWTGDPLKDLLFKDLRPVQTKELESLFAELPTEPPKQTRFLKSQQPTSEPNVETQVEEQPALENEESEPEPSDDQFDLVEEVDVLPNVDPNLETLMASSKWKDRKEALDKLLPVLSQPKIKDNDFFNLVAILTKSVSKDANIMVVINAAHCIQAMAKGLRSNFSKYASTSINALLERSKEKKANVIESLSSAMDAVLATSSLDDLAELIASFAGNKNPQIKSSCFSLFSRSFSNMTSLPSKFTVDTCAKACVPGVSDTFEPVRSAAAEALGVLMKLVGERAINQYLSPLDDIRKSKIRSFYETATVKAKAPTKKSKVKPSKQEESKVVVPSNAKAVKKSVVPSSPVVPSPRKATNKSLSMDVSKGNAFENGPLLPRPTTRPVSRGLSRGTSSSLQQKVKASTPLNSGALNETVQNLKNMELDDPAPQPAKHSRVDRYEHPKVLEDNDSTISSLESLKRENEELREQLKVEHEENISMQKQLSELKGELNTL

- residence ratio at MT plus-ends (average) [1]: 72.4%
B2: TOG1 inactivated Alp14 (TOG1M), residues 1-690, with C-terminal mNeonGreen (domain or fragment)
chain: B1 chain with W23A, R109A, R200A

Further lines, the binder ahead of its results:

B3: C-terminally SNAPf-tagged wt-Alp14 (residues 1-690) (domain or fragment)
chain: B1 chain
modifications: SNAP-Surface Atto 488 covalently attached to the SNAPf tag (5-10 nM labeled diluted into 190-195 nM non-labeled)
- dwell time at MT plus-ends [2]: 129 s

B4: SNAPf-tagged TOG1M Alp14 (residues 1-690) (domain or fragment)
chain: B1 chain with W23A, R109A, R200A
modifications: SNAP-Surface Atto 488 covalently attached to the SNAPf tag
- dwell time at MT plus-ends [2]: 57.4 s
